Assays:
[1] = molecular target: T1, SpyTag003-MBP; assay: ITC, monomeric SpySwitch, pH 7.5, 5 °C; ITC, pH 7.5, 5 C
T1 construct: Fusion of SpyTag003 and MBP

[2] = molecular target: T2, SpyTag-MBP; assay: as above
T2 construct: Fusion of SpyTag and MBP

B1: SpySwitch (designed binder)
chain: MSYYHHHHHHGSGGSGAMVTTLSGLSGEQGPSGDMTTEEDSATHIHFHKHDEDGRELAGATMELRDCSGKTISTWITDGHVKDFYLYPGKYTFVATAAPDGHHVATPIEFTINEDGQVTVDGEATEGDPHTGSSGS
notes: also called SpySwitch resin; monomeric SpySwitch
- Kd [1]: 1500 nM
- stoichiometry [1]: 1
- Kd [2]: 1100 nM
- stoichiometry [2]: 1
